In patent US20130197191A1 (Amgen, published 2013):
Read-outs that look alike come from different tables or passages of the source.

How the values were obtained:
Assay in all cases: phage panning
[1] = biological target: T1, recombinant human β-Klotho (human, UniProt Q86Z14 53-996, limits assumed, biotinylated in the AlphaScreen assays (site not stated))
T1 construct: also called rhβ-klotho; huβKlotho-His
T1 sequence: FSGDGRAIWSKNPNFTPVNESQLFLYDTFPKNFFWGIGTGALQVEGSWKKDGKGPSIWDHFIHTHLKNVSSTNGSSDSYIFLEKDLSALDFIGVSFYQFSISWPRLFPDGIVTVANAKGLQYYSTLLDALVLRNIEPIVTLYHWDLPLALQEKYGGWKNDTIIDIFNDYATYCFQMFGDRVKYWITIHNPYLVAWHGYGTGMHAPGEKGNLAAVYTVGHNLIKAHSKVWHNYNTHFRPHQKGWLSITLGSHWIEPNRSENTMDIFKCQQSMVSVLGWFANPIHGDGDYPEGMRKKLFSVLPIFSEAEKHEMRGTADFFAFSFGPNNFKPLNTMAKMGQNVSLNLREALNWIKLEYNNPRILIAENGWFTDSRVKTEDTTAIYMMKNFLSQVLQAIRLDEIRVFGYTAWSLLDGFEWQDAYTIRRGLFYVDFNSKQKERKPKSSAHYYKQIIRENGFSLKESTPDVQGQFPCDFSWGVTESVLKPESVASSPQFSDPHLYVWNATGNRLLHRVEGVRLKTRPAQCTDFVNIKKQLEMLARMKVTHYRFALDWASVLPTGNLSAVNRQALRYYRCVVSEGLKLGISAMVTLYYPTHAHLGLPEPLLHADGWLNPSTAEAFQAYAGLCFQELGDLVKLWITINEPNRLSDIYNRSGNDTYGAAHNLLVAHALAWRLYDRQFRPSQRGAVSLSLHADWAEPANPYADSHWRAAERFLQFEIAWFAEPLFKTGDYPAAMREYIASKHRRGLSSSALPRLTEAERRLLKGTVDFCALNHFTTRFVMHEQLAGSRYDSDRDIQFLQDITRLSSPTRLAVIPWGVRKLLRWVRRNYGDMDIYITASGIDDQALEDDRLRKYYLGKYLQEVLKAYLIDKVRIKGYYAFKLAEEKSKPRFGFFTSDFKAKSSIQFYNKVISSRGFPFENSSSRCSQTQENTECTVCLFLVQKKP

human FGFR1c-Fc = biological target: T2, human FGFR1c-Fc (human, UniProt P11362 22-376)
T2 construct: also called huFGFR1c-Fc; huFGFR1c/Fc
T2 sequence: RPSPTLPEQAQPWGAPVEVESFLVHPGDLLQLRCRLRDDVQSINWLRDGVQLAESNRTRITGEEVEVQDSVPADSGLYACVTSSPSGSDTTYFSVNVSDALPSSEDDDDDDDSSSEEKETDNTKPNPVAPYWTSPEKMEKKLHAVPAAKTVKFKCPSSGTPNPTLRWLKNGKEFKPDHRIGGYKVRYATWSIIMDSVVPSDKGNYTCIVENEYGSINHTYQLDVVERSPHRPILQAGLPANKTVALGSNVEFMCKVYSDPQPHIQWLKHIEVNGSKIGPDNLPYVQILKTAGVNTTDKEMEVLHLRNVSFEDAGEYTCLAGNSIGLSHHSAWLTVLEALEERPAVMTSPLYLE

[2] = biological target: T1, recombinant human β-Klotho; remark: listed apart in the source
[3] = biological target: T1, recombinant human β-Klotho; remark: listed apart in the source
[4] = biological target: T1, recombinant human β-Klotho; remark: listed apart in the source
[5] = biological target: T1, recombinant human β-Klotho; remark: listed apart in the source
[6] = biological target: T1, recombinant human β-Klotho; remark: listed apart in the source

B1: β-Klotho walked dimer BK_R1c_D15 (designed binder)
chain: CLPDEFQCGSGRCIPQTWVCDGLNDCGDGSDEPPAHCSAPASEPPGSLCRSNQFTCGNGNCIPQPWVCDGEDDCGDDSDEESCKEHT
B1: binds [1].

CGAGLFTCRSTNICISQVWVCDGVDDCEDNSDEDSCSAPASEPPGSL (designed binder, also called M03mutM01) [FGFR1c-binding monomer M03mut01]: binds (human FGFR1c-Fc).

B2: β-Klotho walked dimer BK_R1c_D05 (designed binder)
chain: CAAGQFRCHNSDTCLPGAWVCDGDNDCGDNSDEASCQKRTCHSFNQFECRNGQCIPLHLVCDGVPDCGDNSDETDCGDSHILPFSTPGPST
B2: binds [2].

B3: β-Klotho walked dimer bKWD01 (designed binder)
chain: CLPDEFQCGSGRCIPQHWLCDGLNDCGDGSDEPPAHCSAPASEPPGSLCRAGEFRCSNGRCVPLTWLCDGEDDCQDNSDEKNCAQPT
B3: binds [1].

B4: β-Klotho walked dimer BK_R1c_D14 (designed binder)
chain: CLPDEFQCGSGRCIPQTWVCDGLNDCGDGSDEPPAHCSAPASEPPGSLCRSDEFRCGNGRCIPLTWVCDGEDDCQDSSDETGCTTPGHT
B4: binds [1].

B5: β-Klotho-binding monomer bKmutM28 (designed binder)
chain: CPWFHHFKCRNGQRIPLHLVCDGVPDCGDDSDETDCGDSHILPFSTPGPST
B5: binds [3].

B6: β-Klotho walked dimer BK_R1c_D18 (designed binder)
chain: CPPDEFQCRGTKKCLPLAWVCDGDNDCEDDSDEESCASAVHTCQSNEFRCRSGRCIPQHWLCDGLNDCGDGSDESQQCSAPASEPPGSL
B6: binds [4].

B7: β-Klotho walked dimer BK_R1c_D24 (designed binder)
chain: CRPDEFPCRSTGRCVPRRWVCDGVDDCGDNSDESLAHCQTPTCQPDEFTCSSGRCIPQPWLCDGLNDCGDGSDEPPAHCSAPASEPPGSL
B7: binds [5].

B8: β-Klotho walked dimer BK_R1c_D22 (designed binder)
chain: CQPDEFTCSSGRCIPQPWLCDGLNDCGDGSDEPPAHCSAPASEPPGSLCRPDEFRCKNGRCIPQTWVCDGEDDCQDSSDETDCESTVRT
B8: binds [6].
